{
  "source": "patent US20250361322A1",
  "about": "(ICONIC THERAPEUTICS, published 2025)",
  "key": {"pig TF-His [1]": {"target": "T1, pig TF-His (Pig (Sus scrofa))", "T1 construct": "also called pig TF ECD-His; pTF", "T1 chain": "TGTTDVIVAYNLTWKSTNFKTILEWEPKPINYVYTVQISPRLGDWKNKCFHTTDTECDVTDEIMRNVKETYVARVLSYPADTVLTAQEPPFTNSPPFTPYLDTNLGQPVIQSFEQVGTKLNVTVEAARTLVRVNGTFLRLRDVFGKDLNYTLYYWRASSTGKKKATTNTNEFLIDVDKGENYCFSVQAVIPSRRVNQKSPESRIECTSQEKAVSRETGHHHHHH", "assay": "Biacore SPR, antibody captured by anti-human IgG on CM5, pig TF-His titrated from 100 nM, 1:1 fit", "procedure": "(§1) The ability of certain antibodies was tested for binding to pig TF. For pig TF Biacore-based measurements, a given anti-TF antibody was captured by an anti-human IgG antibody covalently coupled to a CM5 chip (GE Healthcare Bio-Sciences). Association between the anti-TF antibodies and a five-point three-fold titration of pig TF-His starting at 100 nM was measured for 180 to 240 sec. Subsequently, dissociation between the anti-TF antibody and TF-His was measured for 1800 sec. Kinetic data was analyzed and fitted globally using a 1:1 binding model."}, "[2]": {"target": "T2, hTF (human Tissue Factor construct) (human, UniProt P13726 33-251)", "T2 construct": "also called human TF", "assay": "live cell staining, flow cytometry, transfected HEK293", "procedure": "(§2) To establish binding of the anti-human TF antibodies to the various TF constructs, HEK293 cells were transfected with a DNA plasmid that co-expresses the TF construct and a green fluorescent protein marker. […] Upon acquisition of 80,000 live events on a flow cytometer, live cells marked with the fluorescent marker were analyzed for the degree of staining by the anti-TF antibody."}, "hTF_N171H_T197K": {"target": "T3, hTF_N171H_T197K (human, UniProt P13726 33-251)", "T3 chain": "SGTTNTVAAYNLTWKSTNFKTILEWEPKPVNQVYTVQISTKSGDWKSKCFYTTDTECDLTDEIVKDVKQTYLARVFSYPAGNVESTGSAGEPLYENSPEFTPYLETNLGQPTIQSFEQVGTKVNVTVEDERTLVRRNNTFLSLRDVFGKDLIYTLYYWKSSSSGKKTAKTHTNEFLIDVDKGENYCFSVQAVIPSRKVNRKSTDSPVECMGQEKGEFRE", "assay": "live cell staining, flow cytometry, transfected HEK293", "procedure": "as §2"}, "r141-194_h": {"target": "r141-194_h (rat/human chimera, UniProt P42533 29-252)", "assay": "live cell staining, flow cytometry, transfected HEK293", "procedure": "as §2"}, "rTF (rat TF) [3]": {"target": "T4, rTF (rat TF) (rat, UniProt P42533 29-252)", "assay": "live cell staining, flow cytometry, transfected HEK293", "procedure": "as §2"}, "h1-77_r": {"target": "T5, h1-77_r (human/rat chimera)", "T5 construct": "Human TF ECD with residues 1-77 replaced by rat segment", "assay": "live cell staining, flow cytometry, transfected HEK293", "procedure": "as §2"}, "h78-107_r.v2": {"target": "h78-107_r.v2 (human/rat chimera)", "assay": "live cell staining, flow cytometry, transfected HEK293", "procedure": "as §2"}, "h1-107_r": {"target": "T6, h1-107_r (human/rat chimera)", "T6 chain": "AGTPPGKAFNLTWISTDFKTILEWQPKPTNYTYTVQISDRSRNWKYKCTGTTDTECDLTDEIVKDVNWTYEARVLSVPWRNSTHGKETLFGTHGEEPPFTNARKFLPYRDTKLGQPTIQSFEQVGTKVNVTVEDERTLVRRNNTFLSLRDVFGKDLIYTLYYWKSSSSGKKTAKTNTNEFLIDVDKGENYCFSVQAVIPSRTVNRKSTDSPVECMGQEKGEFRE", "assay": "live cell staining, flow cytometry, transfected HEK293", "procedure": "as §2"}, "rTF (rat TF) [4]": {"target": "T4, rTF (rat TF)", "assay": "live cell staining, flow cytometry, transfected HEK293", "remark": "listed apart in the source", "procedure": "as §2"}, "pig TF-His [5]": {"target": "T1, pig TF-His", "assay": "Biacore SPR, antibody captured by anti-human IgG on CM5, pig TF-His titrated", "procedure": "as §1"}},
  "note": "Like-named read-outs stand apart in the source and are kept apart here.",
  "data": [
    {"binder": "25G9 (antibody, V domains shown, Human IgG (captured by anti-human IgG in the Biacore assay); also called antibody designated 25G9) VH: QVQLVQSGAEVKKPGASVKVSCKASGYTFRSYGISWVRQAPGQGLEWMGWVAPYSGNTNYAQKLQGRVTMTTDTSTSTAYMELRSLRSDDTAVYYCARDAGTYSPYGYGMDVWGQGTTVTVSS VL: DIQMTQSPSTLSASVGDRVTITCQASQSIDSWLAWYQQKPGKAPKLLIYSASYLESGVPSRFSGSGSGTEFTLTISSLQPDDFATYYCQRFQSLPPFTFGGGTKVEIK", "values": [
      {"measurement": "Kd", "setting": "pig TF-His [1]", "value": 3.31, "unit": "nM"}
    ]},
    {"binder": "1F (antibody, V domains shown, Human IgG (detected with anti-human IgG-Fc)) VH: EVQLLESGGGLVQPGGSLRLSCAASGFTFSDYAMGWVRQAPGKGLEWVSTISGSGGLTYYADSVKGRFTISRDNSKNTLYLQMNSLRAEDTAVYYCAKAPYGYYMDVWGKGTTVTVSS VL: not shown", "values": [
      {"measurement": "percent antibody binding to TF construct relative to hTF", "setting": "[2]", "value": 100, "unit": "%"},
      {"measurement": "percent antibody binding to TF construct relative to hTF", "setting": "hTF_N171H_T197K", "value": 83, "unit": "%"},
      {"measurement": "percent antibody binding to TF construct relative to hTF", "setting": "r141-194_h", "value": 0, "unit": "%"},
      {"measurement": "percent antibody binding to TF construct relative to hTF", "setting": "rTF (rat TF) [3]", "value": 0, "unit": "%"},
      {"measurement": "percent antibody binding to TF construct relative to hTF", "setting": "h1-77_r", "value": 0, "unit": "%"},
      {"measurement": "percent antibody binding to TF construct relative to hTF", "setting": "h78-107_r.v2", "value": 0, "unit": "%"},
      {"measurement": "percent antibody binding to TF construct relative to hTF", "setting": "h1-107_r", "value": 0, "unit": "%"},
      {"measurement": "percent antibody binding to TF construct relative to hTF", "setting": "rTF (rat TF) [4]", "value": 0, "unit": "%"}
    ]},
    {"binder": "1G (antibody, V domains shown, Human IgG (captured by anti-human IgG in the Biacore assay); also called antibody designated 1G) VH: EVQLLESGGGLVQPGGSLRLSCAASGFTFSSYAMAWVRQAPGKGLEWVSAISGSGGLTYYADSVKGRFTISRDNSKNTLYLQMNSLRAEDTAVYYCAKAPYGYYMDVWGKGTTVTVSS VL: not shown", "values": [
      {"measurement": "binding result", "setting": "pig TF-His [5]", "value": "no binding"}
    ]}
  ]
}
